# “Also recorded” adds a separate entry of the source.
# Assays:
# [1] = system: STAT3; experiment: Cell-to-cell function: phospho-STAT3 in PANC-1 cells seeded with protein-treated RAW 264.7 cells (western blot); format: cell-based; conditions: RAW 264.7 treated with 5 μM protein 2 hour, seeded on PANC-1, 20 ng/ml IFN-γ 15 minutes
# Procedure: For this, RAW 264.7 cells were treated with 5 μM of FITC-labeled HM165S3B, HTS3B for 2 hour and washed with PBS two times. Thereafter, they were seeded on PANC-1 cell, incubated for 2 hours and treated with 20 ng/ml of IFN-γ for 15 minutes, followed by Western blotting in the same manner as in Example 8-1. And Cell-to-cell protein transfer was assessed by flow cytometry.
# [2] = Bioavailability of FITC-labeled SOCS3 recombinant proteins after IV injection (PBMCs, splenocytes, hepatocytes, tissue sections); format: in vivo, ICR mice
# Procedure: To investigate BA of the iCP-SOCS3 (HM165S3B) recombinant proteins, ICR mice (Doo-Yeol Biotech Co. Ltd., Seoul, Korea) were intravenous (IV) injected with 600 μg/head of 10 μM FITC (Fluorescein isothiocyanate, SIGMA, USA)-labeled SOCS3 recombinant proteins (HS3B, HM165S3B) and after 15 min, 30 min, 1H, 2H, 4H, 8H, 12H, 16H, 24H, 36H, 48H, mice of each group were sacrificed. From the mice, peripheral blood mononuclear cells (PBMCs), splenocytes, and hepatocytes were separated.
# Further, the spleen was removed and washed with PBS, and then placed on a dry ice and embedded in an O.C.T. compound (Sakura). After cryosectioning at 20 μm, tissue distributions of fluorescence-labeled-SOCS3 proteins in different organs was analyzed by fluorescence microscopy (Carl Zeiss, Gottingen, Germany).
# After anesthesia with ether, ophthalmectomy was performed and the blood was collected therefrom using a 1 ml syringe. The collected blood was immediately put in an EDTA tube and mixed well. The blood was centrifuged at 4,000 rpm and 4° C. for 5 minutes, and plasma was discarded and only buffy coat was collected in a new microtube. 0.5 ml of RBC lysis buffer (Sigma) was added thereto, followed by vortexing. The microtube was left at room temperature for 5 minutes, and then centrifuged at 4,000 rpm and 4° C. for 5 minutes. 0.3 ml of PBS was added to a pellet, followed by pipetting and flow cytometry (FlowJo cytometric analysis software, Guava, Millipore, Darmstadt, Germany).
# Mice were laparotomized and the spleen or liver were removed. The spleen or liver thus removed was separated into single cells using a Cell Strainer (SPL, Korea). These cells were collected in a microtube, followed by centrifugation at 4,000 rpm and 4° C. for 5 minutes. 0.5 ml of RBC lysis buffer was added thereto, followed by vortexing. The microtube was left at room temperature for 5 minutes, and then centrifuged at 4,000 rpm and 4° C. for 5 minutes. 0.5 ml of PBS was added to a pellet, followed by pipetting and flow cytometry (FlowJo cytometric analysis software, Guava, Millipore, Darmstadt, Germany).
# [3] = system: Hep3B2.1-7 hepatocellular carcinoma cells; experiment: Anti-proliferative activity, CellTiter-Glo, hepatocellular carcinoma cells; format: cell-based, human; conditions: 10 μM, 96 hrs, compared to vehicle
# Procedure: Cells originated from human hepatocellular carcinoma cell (Hep3B, HepG2, Huh-7, SK-Hep1), human normal cells (HEK293, HaCaT, Chang liver cell) and mouse fibroblast (NIH3T3) were purchased from ATCC (Manassas, Va., USA) and KCLB (Seoul, Korea). All the cells were maintained as recommended by the supplier. These cells (3×10^3/well) were seeded in 96 well plates. The next day, cells were treated with DMEM (vehicle) or 10 μM recombinant SOCS3 proteins for 96 hrs in the presence of serum (2%). Proteins were replaced daily. Cell growth and survival were evaluated with the CellTiter-Glo Cell Viability Assay (Promega, Madison, Wis.). Measurements using a Luminometer (Turner Designs, Sunnyvale, Calif.) were conducted following the manufacturer's protocol.
# [4] = system: NIH3T3 cells; experiment: Intracellular delivery and localization of FITC-labeled SOCS3 recombinant proteins (confocal microscopy); format: cell-based, mouse; conditions: 10 μM FITC-labeled SOCS3 protein, 1 hour, 37° C.
# Procedure: To examine cell-permeability of SOCS3 recombinant protein, SOCS3 recombinant proteins were conjugated to 5/6-fluorescein isothiocyanate (FITC). RAW 264.7 (KCLB, Seoul, South Korea) (FIG. 20) or NIH3T3 cells (KCLB, Seoul, South Korea) (FIG. 21) were treated with 10 μM FITC-labeled SOCS3 recombinant proteins and cultivated for 1 hr at 37° C.
# After cultivation, the cells were washed three times with ice-cold PBS (Phosphate-buffered saline, Hyclone, USA) and treated with proteinase K (10 μg/mL, SIGMA, USA) to remove surface-bound proteins, and internalized proteins were measured by flow cytometry (FlowJo cytometric analysis software, Guava, Millipore, Darmstadt, Germany). Untreated cells (gray) and equimolar concentration of unconjugated FITC (FITC only, green)-treated cells were served as control (FIG. 20). Each of NIH3T3 cells was incubated for 1 hour at 37° C. with 10 μM FITC-labeled SOCS3 protein. For nuclear staining, a mixture of […] Mounting Medium (Vector laboratories, Burlingame, Calif.) and DAPI (4′,6-diamidino-2-phenylindole) was added to NIH3T3 cells, and visualized using a confocal laser microscope (LSM700, Zeiss, Germany) (FIG. 21).
# [5] = IV 600 μg/head FITC-labeled protein
molecule,measurement,setting,value
"HM165S3B: His-tagged recombinant protein of aMTD165, human SOCS3 and solubilization domain B; prototype improved cell-permeable SOCS3 (protein, Amino acid sequence of HM165S3B) MGSSHHHHHHSSGLVPRGSHMALAVPVALAIVPVTHSKFPAAGMETSRPLDTSLRLKTFSSKSEYQLVVNAVRKLQESGFYWSAVTGGEANLLLSAEPAGTFLIRDSSDQRHFFTLSVKTQSGTKNLRIQCEGGSFSLQSDPRSTQPVPRFDCVLKLVHHYMETPPPGAPSFPSPPTEPSSEVPEQPSAQPLPGSPPRRAYYIYSGGEKIPLVLSRPLSSNVATLQHLCRKTVNGHLDSYEKVTQLPGPIREFLDQYDAPLGSMAEQSDKDVKYYTLEEIQKHKDSKSTWVILHHKVYDLTKFLEEHPGGEEVLGEQAGGDATENFEDVGHSTDARELSKTYIIGELHPDDRSKIAKPSETL",phospho-STAT3 (cell-to-cell function),[1],reduced
same,"time maintained in tissues, depending on the tissues",[2]; IV,8 to 16 h
same,time of delivery from blood to various tissues,[2]; IV,≤ 2 h
same,distribution in pancreas tissue maintained up to,[2]; [5],up to 8 hours
same,permeability in hepatocytes maintained up to,[2]; [5],up to 16 hours
same,permeability in splenocytes maintained up to,[2]; [5],up to 16 hours
same,time of maximum permeability in PBMCs,[2]; [5],30 min
same,time of maximum permeability in hepatocytes,[2]; [5],15 min
same,time of maximum permeability in splenocytes,[2]; [5],2 h
same,time of very high distribution in pancreas tissue,[2]; [5],2 h
same,cytotoxicity to Hep3B2.1-7 cells,[3],over 80%
same,intracellular delivery and localization,[4],localized to various extents in cytoplasm; also recorded: displayed more uniform cellular distribution

# — US10385103B2, “Cell-permeable (ICP)-SOCS3 recombinant protein and uses thereof” (CELLIVERY THERAPEUTICS, INC., priority 2014, dated 2019)
